Measurements published in patent publication US20190112340A1 (US Dept. of Health and Human Services, published 2019).

Columns and labels:
[1] = molecular target: T1, sc9-19 DS-Cav1 (Engineered disulfide 155C-290C. Glycoprotein; it assembles as a trimer and one protomer is given.); test: BLI (Octet), F on Ni-NTA tips, Fab in solution
[2] = molecular target: T2, RSV F sc9-10 DS-Cav1 (human RSV subtype A (strain A2)); test: BLI (Octet), F on Ni-NTA tips, Fab in solution
[3] = molecular target: sc9-24 DS-Cav1; test: BLI (Octet), F on Ni-NTA tips, Fab in solution
[4] = molecular target: RSV F sc9-9 DS-Cav1 (human RSV subtype A (strain A2), UniProt P03420 26-96; P03420 145-513); test: BLI (Octet), F on Ni-NTA tips, Fab in solution
[5] = molecular target: sc9 DS-Cav1-105Q (Engineered disulfide 155C-290C. Glycoprotein; it assembles as a trimer and one protomer is given.); test: BLI (Octet), F on Ni-NTA tips, Fab in solution
[6] = molecular target: sc8 DS-Cav1; test: BLI (Octet), F on Ni-NTA tips, Fab in solution
[7] = molecular target: sc11 DS-Cav1 (Engineered disulfide 155C-290C. Engineered cysteines 512C/513C. Glycoprotein; one protomer is given.); test: BLI (Octet), F on Ni-NTA tips, Fab in solution
[8] = molecular target: T1, sc9-19 DS-Cav1; test: BLI (Octet), D25 Fab binding after/before stress
[9] = molecular target: T2, RSV F sc9-10 DS-Cav1; test: BLI (Octet), D25 Fab binding after/before stress
[10] = molecular target: sc9-24 DS-Cav1; test: BLI (Octet), D25 Fab binding after/before stress
[11] = molecular target: T3, bRSV F 391-2 sc9 DS-Cav1 Q98C Q361C (bovine RSV, strain 391-2, UniProt P22167 26-513); test: Fab binding to purified bRSV F trimer (Octet BLI as in Example 1)
[12] = molecular target: T4, bRSV F strain 391-2 sc9-10, DS-Cav1, Q98C-Q361C (bovine RSV, strain 391-2); test: as above
[13] = molecular target: T5, bRSV F RB94 DS-Cav1 (bovine RSV, strain RB94, UniProt P23728 26-109; P23728 137-513); test: as above
[14] = molecular target: T6, bRSV F 391-2 DS-Cav1 (bovine RSV, strain 391-2, UniProt P22167 26-574); test: as above
[15] = molecular target: T7, bRSV F ATue51908 DS-Cav1 (bovine RSV, strain ATue51908, UniProt P22167 26-109; P22167 137-513); test: as above
[16] = molecular target: T8, bRSV F ATue51908 sc9-10 DS-Cav1 A149C Y458C (bovine RSV, strain ATue51908 …); test: as above
[17] = molecular target: T3, bRSV F 391-2 sc9 DS-Cav1 Q98C Q361C; test: D25 binding to stressed pre-F trimer as a fraction of the untreated protein (physical stability)
[18] = molecular target: T4, bRSV F strain 391-2 sc9-10, DS-Cav1, …; test: as above
[19] = molecular target: T5, bRSV F RB94 DS-Cav1; test: as above
[20] = molecular target: T6, bRSV F 391-2 DS-Cav1; test: as above
[21] = molecular target: T7, bRSV F ATue51908 DS-Cav1; test: as above
[22] = molecular target: T8, bRSV F ATue51908 sc9-10 DS-Cav1 A149C …; test: as above
[23] = molecular target: sc9-10 DS-Cav1 Q98C, Q361C L95M-I221M-R429K (B18537); test: BLI (Octet), F on Ni-NTA tips, Fab in solution
[24] = molecular target: sc9-10 DS-Cav1 Q98C, Q361C S46G-E92D-L95M-S215P-I217P-I221M-R429K-K465Q (Long (VR26)); test: BLI (Octet), F on Ni-NTA tips, Fab in solution

B1: D25 Fab (Fab, V domains shown)
VH: QVQLVQSGAEVKKPGSSVMVSCQASGGPLRNYIINWLRQAPGQGPEWMGGIIPVLGTVHYAPKFQGRVTITADESTDTAYIHLISLRSEDTAMYYCATETALVVSTTYLPHYFDNWGQGTLVTVSS
VL: DIQMTQSPSSLSAAVGDRVTITCQASQDIVNYLNWYQQKPGKAPKLLIYVASNLETGVPSRFSGSGSGTDFSLTISSLQPEDVATYYCQQYDNLPLTFGGGTKVEIKR
Kd [1]: 0.8 nM | Kd [2]: 0.8 nM | Kd [3]: 0.8 nM | Kd [4]: 0.2 nM | Kd [5]: 0.7 nM | Kd [6]: 7.4 nM | Kd [7]: 0.7 nM | fractional D25 reactivity, 50 °C [8]: 0.9 | fractional D25 reactivity, 70 °C [8]: 0.9 | fractional D25 reactivity, freeze-thaw [8]: 0.04 | fractional D25 reactivity, osmolality 10 mM [8]: 0.6 | fractional D25 reactivity, osmolality 3000 mM [8]: 0.5 | fractional D25 reactivity, pH 3.5 [8]: 0.7 | fractional D25 reactivity, pH 10.0 [8]: 0.8 | fractional D25 reactivity, 50 °C [9]: 0.9 | fractional D25 reactivity, 70 °C [9]: 0.9 | fractional D25 reactivity, freeze-thaw [9]: 0.2 | fractional D25 reactivity, osmolality 10 mM [9]: 1.4 | fractional D25 reactivity, osmolality 3000 mM [9]: 0.7 | fractional D25 reactivity, pH 3.5 [9]: 1.5 | fractional D25 reactivity, pH 10.0 [9]: 0.7 | fractional D25 reactivity, 50 °C [10]: 0.9 | fractional D25 reactivity, 70 °C [10]: 0.9 | fractional D25 reactivity, freeze-thaw [10]: 0 | fractional D25 reactivity, osmolality 10 mM [10]: 0.5 | fractional D25 reactivity, osmolality 3000 mM [10]: 0.5 | fractional D25 reactivity, pH 3.5 [10]: 0.7 | fractional D25 reactivity, pH 10.0 [10]: 0.7 | Kd [11]: 24.3 nM | Kd [12]: 57.5 nM | Kd [13]: 24.3 nM | Kd [14]: 0.4 nM | Kd [15]: 10.8 nM | Kd [16]: 420 nM | fractional antibody reactivity after 10 cycles of freeze-thaw [17]: 1 fraction | fractional antibody reactivity after 50 °C [17]: 0.9 fraction | fractional antibody reactivity after 70 °C [17]: 0.8 fraction | fractional antibody reactivity after osmolarity 10 mM [17]: 1 fraction | fractional antibody reactivity after osmolarity 3000 mM [17]: 0.9 fraction | fractional antibody reactivity after pH 3.5 [17]: 1.2 fraction | fractional antibody reactivity after pH 10.0 [17]: 1 fraction | fractional antibody reactivity after 10 cycles of freeze-thaw [18]: 1 fraction | fractional antibody reactivity after 50 °C [18]: 1 fraction | fractional antibody reactivity after 70 °C [18]: 1 fraction | fractional antibody reactivity after osmolarity 10 mM [18]: 0.8 fraction | fractional antibody reactivity after osmolarity 3000 mM [18]: 0.8 fraction | fractional antibody reactivity after pH 3.5 [18]: 0.9 fraction | fractional antibody reactivity after pH 10.0 [18]: 0.9 fraction | fractional antibody reactivity after 10 cycles of freeze-thaw [19]: 1 fraction | fractional antibody reactivity after 50 °C [19]: 0.6 fraction | fractional antibody reactivity after 70 °C [19]: 0.1 fraction | fractional antibody reactivity after osmolarity 10 mM [19]: 0.8 fraction | fractional antibody reactivity after osmolarity 3000 mM [19]: 0.5 fraction | fractional antibody reactivity after pH 3.5 [19]: 1.2 fraction | fractional antibody reactivity after pH 10.0 [19]: 1.3 fraction | fractional antibody reactivity after 10 cycles of freeze-thaw [20]: 1 fraction | fractional antibody reactivity after 50 °C [20]: 0.7 fraction | fractional antibody reactivity after 70 °C [20]: 0.1 fraction | fractional antibody reactivity after osmolarity 10 mM [20]: 0.9 fraction | fractional antibody reactivity after osmolarity 3000 mM [20]: 0.6 fraction | fractional antibody reactivity after pH 3.5 [20]: 0.9 fraction | fractional antibody reactivity after pH 10.0 [20]: 1.2 fraction | fractional antibody reactivity after 10 cycles of freeze-thaw [21]: 1 fraction | fractional antibody reactivity after 50 °C [21]: 0.9 fraction | fractional antibody reactivity after 70 °C [21]: 0.1 fraction | fractional antibody reactivity after osmolarity 10 mM [21]: 0.7 fraction | fractional antibody reactivity after osmolarity 3000 mM [21]: 0.4 fraction | fractional antibody reactivity after pH 3.5 [21]: 0.9 fraction | fractional antibody reactivity after 10 cycles of freeze-thaw [22]: 1 fraction | fractional antibody reactivity after 50 °C [22]: 0.9 fraction | fractional antibody reactivity after 70 °C [22]: 0.9 fraction | fractional antibody reactivity after osmolarity 10 mM [22]: 0.7 fraction | fractional antibody reactivity after osmolarity 3000 mM [22]: 0.8 fraction | fractional antibody reactivity after pH 3.5 [22]: 1 fraction | fractional antibody reactivity after pH 10.0 [22]: 0.9 fraction | Kd [23]: 0.1 nM | Kd [24]: 0.1 nM
